# B1: SHP: Small Heterodimer Partner (NR0B2), cDNA driver (protein, UniProt Q15466 1-257, looked up)
# Nuclear receptor subfamily 0 …: MSTSQPGACPCQGAASRPAILYALLSSSLKAVPRPRSRCLCRQHRPVQLCAPHRTCREALDVLAKTVAFLRNLPSFWQLPPQDQRRLLQGCWGPLFLLGLAQDAVTFEVAEAPVPSILKKILLEEPSSSGGSGQLPDRPQPSLAAVQWLQCCLESFWSLELSPKEYACLKGTILFNPDVPGLQAASHIGHLQQEAHWVLCEVLEPWCPAAQGRLTRVLLTASTLKSIPTSLLGDLFFRPIIGDVDIAGLLGDMLLLR
# How the values were obtained:
# Bmal1 promoter = assay: NHR-promoter luciferase screen, Bmal1 promoter; assay type: cell-based, mouse
# Procedure, shortened: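 Luciferase activity was measured 48 h after transfection, normalized to LacZ and then to a control lacking NHR or ligand. CV-1 cells carried 100 ng Bmal1 reporter, 50 ng NHR construct and 50 ng LacZ.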
# hPPARg1 promoter = assay: NHR-promoter luciferase screen, hPPARg1 promoter; assay type: cell-based, human
# Procedure, shortened: (§1)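 CV-1 cells were co-transfected with 50 ng NHR (homodimer or NHR/RXR heterodimer), 100 ng promoter-luciferase construct and 50 ng LacZ. Luciferase was normalized to LacZ and to a no-NHR/no-ligand control.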
# mUCP3 promoter = assay: NHR-promoter luciferase screen, mUCP3 promoter; assay type: cell-based, mouse
# Procedure, shortened: as §1
# mCAR promoter = assay: NHR-promoter luciferase screen, mCAR promoter; assay type: cell-based, mouse
# Procedure, shortened: as §1
# mPer1 promoter = assay: NHR-promoter luciferase screen, mPer1 promoter; assay type: cell-based, mouse
# Procedure, shortened: as §1
# [1] = Bmal1 promoter, HR component without or with ligand
# [2] = transcription factor +/- ligand, control = 1.00
# [3] = mCAR promoter, HR/ligand component
molecule,measurement,setting,value
B1,"Luc. act., normalized to lacZ",Bmal1 promoter; [1],14.0
same,"Normalized Luc. act., normalized to control",Bmal1 promoter; [1],0.9
same,mBmal1 promoter reporter activity,Bmal1 promoter; [2],0.89
same,"Luc. act., normalized to lacZ","hPPARg1 promoter; PPARG1 promoter, hormone receptor with or without its ligand",67.9
same,"Normalized Luc. act., normalized to control","hPPARg1 promoter; PPARG1 promoter, hormone receptor with or without its ligand, relative to control",1.0
same,Results of assays of transcription factor (+/- ligand) with hPPARg1,"hPPARg1 promoter; Table 6d, luciferase activity relative to control (control = 1.00)",0.99
same,"Normalized Luc. act., normalized to control","mUCP3 promoter; mUCP3 promoter reporter, HR without or with its ligand, relative to control",1.1
same,"Luc. act., normalized to lacZ","mUCP3 promoter; mUCP3 promoter reporter, hormone receptor (HR) without or with its ligand",0.77
same,mUCP3 promoter reporter activity,mUCP3 promoter; [2],1.15
same,"luciferase activity normalized to lacZ activity and to a control, mCAR","mCAR promoter; mCAR promoter-luciferase, CV-1 cells, NHR +/- ligand, control = 1.00",0.95
same,"Luc. act., normalized to lacZ",mCAR promoter; [3],36.17
same,"Normalized Luc. act., normalized to control",mCAR promoter; [3],0.9
same,"Luc. act., normalized to lacZ","mPer1 promoter; Per1 promoter reporter, co-transfected HR, with or without its ligand",130.3
same,"Normalized Luc. act., normalized to control","mPer1 promoter; Per1 promoter reporter, co-transfected HR, with or without its ligand, relative to control",0.9
same,"luciferase activity normalized to lacZ activity and to a control, mPer1","mPer1 promoter; mPer1 promoter-luciferase, CV-1 cells, NHR +/- ligand, control = 1.00",0.90

# — patent publication US20110263454A1, “Methods of Identifying Functional Characteristics of Promoters, Transcription Modifying Proteins and Transcription Modulating Agents” (Salk Institute for Biological Studies, priority 2008, published 2011)
